One test deals with T1, 4H619-bH.
T1 chain: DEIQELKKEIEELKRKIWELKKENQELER
As to the kind of experiment: two-hybrid library CCNG1.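 Further: natural log of median RNA to DNA barcode read ratio; higher means stronger binding.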

In another test the target is T2, 4H477-bH.
T2 chain: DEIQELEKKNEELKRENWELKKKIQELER
As to the kind of experiment: two-hybrid library CCNG1.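 Further: natural log of median RNA to DNA barcode read ratio; higher means stronger binding.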

In the next test the target is T3, 4H2503-bH.
T3 chain: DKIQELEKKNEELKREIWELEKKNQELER
In words: two-hybrid library CCNG1.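 Further: natural log of median RNA to DNA barcode read ratio; higher means stronger binding.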

In a further test the target is T4, 4H2692-bH.
T4 chain: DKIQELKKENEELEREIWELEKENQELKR
As to the kind of experiment: two-hybrid library CCNG1.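 Further: natural log of median RNA to DNA barcode read ratio; higher means stronger binding.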

Another test deals with T5, 4H2588-bH.
T5 chain: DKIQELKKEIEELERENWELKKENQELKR
In words: two-hybrid library CCNG1.

The next test addresses T6, 4H2839-bH.
T6 chain: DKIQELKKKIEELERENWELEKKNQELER
As to the kind of experiment: two-hybrid library CCNG1.

Another test has as its target T7, 4H2717-bH.
T7 chain: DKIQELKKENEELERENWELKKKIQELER
As to the kind of experiment: two-hybrid library CCNG1.

In another test the target is T8, 4H40-bH.
T8 chain: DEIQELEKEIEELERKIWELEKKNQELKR
In words: two-hybrid library CCNG1.

The next test addresses T9, 4H319-bH.
T9 chain: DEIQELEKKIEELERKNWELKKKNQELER
In words: two-hybrid library CCNG1.

The next test deals with T10, 4H3057-bH.
T10 chain: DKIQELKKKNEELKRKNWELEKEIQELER
As to the kind of experiment: two-hybrid library CCNG1.

A further test deals with T11, 4H492-bH.
T11 chain: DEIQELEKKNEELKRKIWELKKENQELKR
As to the kind of experiment: two-hybrid library CCNG1.

For a further test, the target named is T12, 4H2473-bH.
T12 chain: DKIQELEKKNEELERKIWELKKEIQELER
In words: two-hybrid library CCNG1.

In the next test the target is T13, 4H2915-bH.
T13 chain: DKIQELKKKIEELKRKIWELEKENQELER
In words: two-hybrid library CCNG1.

The target in a further test is T14, 4H3277-bH.
T14 chain: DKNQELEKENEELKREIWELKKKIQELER
As to the kind of experiment: two-hybrid library CCNG1.

The target of another test is T15, 4H348-bH.
T15 chain: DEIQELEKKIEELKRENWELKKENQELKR
In words: two-hybrid library CCNG1.

The target of another test is T16, 4H741-bH.
T16 chain: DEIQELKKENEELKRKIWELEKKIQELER
In words: two-hybrid library CCNG1.

The next test addresses T17, 4H2991-AA.
T17 chain: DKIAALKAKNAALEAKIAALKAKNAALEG
In words: two-hybrid library CCmax. The conditions noted are these: mean of both orientations.

The target of a further test is T18, 4H656-AA.
T18 chain: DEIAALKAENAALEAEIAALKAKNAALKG
As to the kind of experiment: two-hybrid library CCmax. The conditions noted are these: mean of both orientations.

The target of a further test is T19, 4H3066-AA.
T19 chain: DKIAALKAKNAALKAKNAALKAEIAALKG
As to the kind of experiment: two-hybrid library CCmax. The conditions noted are these: mean of both orientations.

Another test addresses T20, 4H3628-AA.
T20 chain: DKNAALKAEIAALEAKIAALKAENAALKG
In words: two-hybrid library CCmax. To be noted: mean of both orientations.

For another test, the target named is T21, 4H971-AA.
T21 chain: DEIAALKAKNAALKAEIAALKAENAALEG
In words: two-hybrid library CCmax. The conditions noted are these: mean of both orientations.

In the next test the target is T22, 4H391-AA.
T22 chain: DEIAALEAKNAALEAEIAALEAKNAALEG
In words: two-hybrid library CCmax. To be noted: mean of both orientations.

The target of another test is T23, 4H3666-AA.
T23 chain: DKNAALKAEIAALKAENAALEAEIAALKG
In words: two-hybrid library CCmax. The conditions noted are these: mean of both orientations.

The target in another test is T24, 4H3417-AA.
T24 chain: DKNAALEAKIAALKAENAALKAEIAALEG
In words: two-hybrid library CCmax. To be noted: mean of both orientations.

The target in a further test is T25, 4H3102-AA.
T25 chain: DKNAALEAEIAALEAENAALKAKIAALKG
As to the kind of experiment: two-hybrid library CCmax. To be noted: mean of both orientations.

The target in a further test is T26, 4H2248-AA.
T26 chain: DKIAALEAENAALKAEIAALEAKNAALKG
As to the kind of experiment: two-hybrid library CCmax. To be noted: mean of both orientations.

The next test has as its target T27, 4H428-AA.
T27 chain: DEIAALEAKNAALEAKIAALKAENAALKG
As to the kind of experiment: two-hybrid library CCmax. To be noted: mean of both orientations.

For the next test, the target named is T28, 4H2713-AA.
T28 chain: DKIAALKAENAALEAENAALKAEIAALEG
As to the kind of experiment: two-hybrid library CCmax. The conditions noted are these: mean of both orientations.

In a further test the target is T29, 4H3920-AA.
T29 chain: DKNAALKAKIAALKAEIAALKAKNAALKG
In words: two-hybrid library CCmax. The conditions noted are these: mean of both orientations.

The target of another test is T30, 4H3709-AA.
T30 chain: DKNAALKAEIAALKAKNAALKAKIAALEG
As to the kind of experiment: two-hybrid library CCmax. The conditions noted are these: mean of both orientations.

Another test has as its target T31, 4H3446-AA.
T31 chain: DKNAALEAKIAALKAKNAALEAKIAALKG
As to the kind of experiment: two-hybrid library CCmax. To be noted: mean of both orientations.

In the next test the target is T32, 4H2742-AA.
T32 chain: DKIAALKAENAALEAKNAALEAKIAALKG
As to the kind of experiment: two-hybrid library CCmax.

The next test addresses T33, 4H2948-AA.
T33 chain: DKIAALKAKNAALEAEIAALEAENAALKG
As to the kind of experiment: two-hybrid library CCmax. To be noted: mean of both orientations.

The target of another test is T34, 4H675-AA.
T34 chain: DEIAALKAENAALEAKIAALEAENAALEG
In words: two-hybrid library CCmax. The conditions noted are these: mean of both orientations.

In another test the target is T35, 4H478-AA.
T35 chain: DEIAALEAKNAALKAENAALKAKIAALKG
In words: two-hybrid library CCmax. To be noted: mean of both orientations.

The target in a further test is T36, 4H497-AA.
T36 chain: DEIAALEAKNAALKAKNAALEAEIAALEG
As to the kind of experiment: two-hybrid library CCmax. To be noted: mean of both orientations.

In the next test the target is T37, 4H3029-AA.
T37 chain: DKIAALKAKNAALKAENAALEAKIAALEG
In words: two-hybrid library CCmax. To be noted: mean of both orientations.

The next test deals with T38, 4H3939-AA.
T38 chain: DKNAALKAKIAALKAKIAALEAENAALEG
In words: two-hybrid library CCmax. To be noted: mean of both orientations.

In the next test the target is T39, 4H3121-AA.
T39 chain: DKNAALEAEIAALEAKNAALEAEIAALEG
As to the kind of experiment: two-hybrid library CCmax. The conditions noted are these: mean of both orientations.

The next test has as its target T40, 4H146-AA.
T40 chain: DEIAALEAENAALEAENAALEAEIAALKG
In words: two-hybrid library CCmax. To be noted: mean of both orientations.

The target of another test is T41, 4H2283-AA.
T41 chain: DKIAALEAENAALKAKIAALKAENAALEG
In words: two-hybrid library CCmax. The conditions noted are these: mean of both orientations.

A further test has as its target T42, 4H3591-AA.
T42 chain: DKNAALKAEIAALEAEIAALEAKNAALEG
As to the kind of experiment: two-hybrid library CCmax. The conditions noted are these: mean of both orientations.

The next test concerns the target T43, 4H1391-AA.
T43 chain: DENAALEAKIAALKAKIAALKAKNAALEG
As to the kind of experiment: two-hybrid library CCmax.

In a further test the target is T44, 4H1809-AA.
T44 chain: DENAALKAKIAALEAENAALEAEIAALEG
As to the kind of experiment: two-hybrid library CCmax. To be noted: mean of both orientations.

The next test concerns the target T45, 4H189-AA.
T45 chain: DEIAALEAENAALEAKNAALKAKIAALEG
In words: two-hybrid library CCmax. To be noted: mean of both orientations.

Another test has as its target T46, 4H1854-AA.
T46 chain: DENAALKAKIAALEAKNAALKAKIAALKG
As to the kind of experiment: two-hybrid library CCmax. To be noted: mean of both orientations.

In the case of DKIQELEKKNEELERKIWELKKEIQELER [4H2473-bH], the interaction score was -2.35 with 4H619-bH; -1.42 with 4H477-bH; 0.0804 in the test with 4H2503-bH; 0.549 with 4H2692-bH; -0.165 in the test with 4H2588-bH; -0.0772 with 4H2839-bH. In addition, the interaction score with 4H2717-bH is -0.241; in the test with 4H40-bH, -0.286; with 4H319-bH, -1.01; with 4H3057-bH it was 0.309; with 4H492-bH, 0.0302; in the test with 4H2473-bH it was 1.05. Moreover, the interaction score is 0.134 with 4H2915-bH, -0.651 in the test with 4H3277-bH, -0.545 with 4H348-bH and -0.491 with 4H741-bH.

Consider DENAALEAKIAALKAKIAALKAKNAALEG [4H1391-AA], for which the interaction score is -2.12 with 4H2991-AA; -1.09 in the test with 4H656-AA; -1.99 in the test with 4H3066-AA; 0.211 with 4H3628-AA; -1.37 in the test with 4H971-AA; -1.36 with 4H391-AA. The interaction score was -1.8 with 4H3666-AA; -1.93 in the test with 4H3417-AA; -1.1 with 4H3102-AA; -1.32 with 4H2248-AA; -1.77 in the test with 4H428-AA; -1.47 with 4H2713-AA. In addition, the interaction score with 4H3920-AA was -0.296; with 4H3709-AA, -1.44; with 4H3446-AA it was -1.64; in the test with 4H2742-AA it was -1.48; in the test with 4H2948-AA it was -1.19; in the test with 4H675-AA, -1.62. The interaction score was -1.53 with 4H478-AA; -1.59 with 4H497-AA; -1.41 with 4H3029-AA; -1.09 in the test with 4H3939-AA; -1.32 with 4H3121-AA; -1.65 in the test with 4H146-AA. In addition, the interaction score is -1.61 with 4H2283-AA; 2.15 in the test with 4H3591-AA; -0.77 in the test with 4H1391-AA; -0.868 in the test with 4H1809-AA; -1.54 with 4H189-AA; -1.81 in the test with 4H1854-AA.

Source of the values: publication PMC10397247.
